Targets include Itk SH3(E189Q) domain; Itk SH3(Y180E) domain; Itk SH3(E189K) domain; Itk SH2(I282A) domain.
Common to all, as to assay: NMR titration
In assay [1] the target is Itk SH3 domain (wild type).

Square brackets hold non-standard residues; d marks the D form. pY = N[C@@H](Cc1ccc(OP(=O)(O)O)cc1)C(=O)O

“Itk SH2 domain (wild type) (domain or fragment)”: the Kd (commonly a measure of binding affinity in units of concentration) worked out at 670 µM in assay [1] and 2050 µM with Itk SH3(E189Q) domain.

Consider “Itk SH2(K280A) domain (domain or fragment)”, for which the fold drop in affinity against SH3(Y180E)/wild type SH2 in the assay with Itk SH3(Y180E) domain is 10 fold.

For the molecule “Itk SH2(K309E) domain (domain or fragment)”, the values for the Kd (in assay [1]; with Itk SH3(E189K) domain) were 1850 µM and 1080 µM, respectively.

Turning to “Itk SH2(R332A) domain (domain or fragment)”, in assay [1], the Kd amounted to 1800 µM.

B1: phosphopeptide derived from Slp76 (Ac-ADpYEPP-NH2) (peptide)
peptide: Ac-AD[pY]EPP-NH2
SMILES: CC(=O)N[C@@H](C)C(=O)N[C@@H](CC(=O)O)C(=O)N[C@@H](Cc1ccc(OP(=O)(O)O)cc1)C(=O)N[C@@H](CCC(=O)O)C(=O)N1CCC[C@H]1C(=O)N1CCC[C@H]1C(N)=O
Turning to B1, the equilibrium dissociation constant (Kd) with Itk SH2(I282A) domain came out at 1000 µM.

Source of the values: article PMC2810249.
